Results reported in patent CN1420129A (ZHONGXIN GUOJIAN PHARMACEUTICA, dated 2003).
Read-outs that look alike come from different tables or passages of the source.

Columns and labels:
Test in all cases: cell-based or functional assay
[1] = molecular target: CD20 (on CD20+ B lymphocytes / human B lymphoma cell line DHL-4) (human) (UniProt P11836)
[2] = molecular target: CD20 (on CD20+ B lymphocytes / human B lymphoma cell line DHL-4) (human) (UniProt P11836); remark: listed apart in the source
[3] = molecular target: T1, CD20 (on CD20+ B lymphocytes / human B lymphoma cell line DHL-4) (human, UniProt P11836 1-297)
T1 sequence (looked up): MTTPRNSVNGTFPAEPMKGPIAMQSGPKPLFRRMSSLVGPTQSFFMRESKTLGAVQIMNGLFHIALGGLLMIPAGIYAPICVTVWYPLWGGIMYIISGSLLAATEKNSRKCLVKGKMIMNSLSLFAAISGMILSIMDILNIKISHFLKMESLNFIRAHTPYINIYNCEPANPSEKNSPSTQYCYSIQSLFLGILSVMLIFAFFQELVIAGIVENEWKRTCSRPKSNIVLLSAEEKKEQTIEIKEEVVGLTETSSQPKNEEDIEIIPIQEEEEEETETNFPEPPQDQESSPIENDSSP

Row | 存活细胞% (DHL-4 CD20+ cells, cell count and MTT, day 5-7) at 1 μg/ml [3] [% surviving cells] | 存活细胞% (DHL-4 CD20+ cells, cell count and MTT, day 5-7) at 10 μg/ml [3] [% surviving cells] | 存活细胞% (DHL-4 CD20+ cells, cell count and MTT, day 5-7) at 100 μg/ml [3] [% surviving cells] | Molecule | 存活细胞% (DHL-4 CD20+ cells, cell count and MTT, day 5-7) at 1 μg/ml (% surviving cells) [1] | 存活细胞% (DHL-4 CD20+ cells, cell count and MTT, day 5-7) at 10 μg/ml (% surviving cells) [1] | 存活细胞% (DHL-4 CD20+ cells, cell count and MTT, day 5-7) at 100 μg/ml (% surviving cells) [1] | 存活细胞% (DHL-4 CD20+ cells, cell count and MTT, day 5-7) at 1 μg/ml (% surviving cells) [2] | 存活细胞% (DHL-4 CD20+ cells, cell count and MTT, day 5-7) at 10 μg/ml (% surviving cells) [2] | 存活细胞% (DHL-4 CD20+ cells, cell count and MTT, day 5-7) at 100 μg/ml (% surviving cells) [2]
1 | – | – | – | Rituximab (antibody) | 66.7 | 32.1 | 19.4 | 50.3 | 12.6 | 29.4
2 | 99.6 | 46.5 | 56.7 | 单克隆抗体7D3 (antibody, V domains shown) VH: QAQLQQSGAELVRPGASVKMSCKASGYTFTRYNMHWVKQTPRQGLEWIGYIYPGNGDTNYNQKFKGKATLTVDKSSSTAYMQLSSLTSEDSAVYFCARRTYYSNSYWYFDVWGTGTTVTVSS VL: QIVLTQSPAILSASPGEKVTMTCRASSSVSYMNWYQQKPGSSPKPWIYAPSNLASGVPARFSGSGSGTSYSLTISRVEAEDAATYYCQQWSNNPPTFGAGTKLELKR | – | – | – | – | – | –
3 | 110 | 27.3 | 39.4 | 嵌合单抗C7D3 (antibody, human IgG1, V domains shown) VH: QAQLQQSGAELVRPGASVKMSCKASGYTFTRYNMHWVKQTPRQGLEWIGYIYPGNGDTNYNQKFKGKATLTVDKSSSTAYMQLSSLTSEDSAVYFCARRTYYSNSYWYFDVWGTGTTVTVSS VL: QIVLTQSPAILSASPGEKVTMTCRASSSVSYMNWYQQKPGSSPKPWIYAPSNLASGVPARFSGSGSGTSYSLTISRVEAEDAATYYCQQWSNNPPTFGAGTKLELKR | – | – | – | – | – | –
